Source: publication doi:10.1101/2023.09.15.558033

Columns and labels:
[1] = target: Hsp60 C-terminal deletion mutant Δ522 (terminal 26 residues removed) (human); test: cryo-EM structure
[2] = target: Hsp60 C-terminal deletion mutant Δ532 (terminal 16 residues removed) (human)

stoichiometry N [1] | refolding of denatured hMDH (hMDH activity), loss against wild-type Hsp60 [2] [%] | Molecule
14 | – | Hsp60 C-terminal deletion mutant Δ522 (terminal 26 residues removed) (domain or fragment)
– | 27 | human malate dehydrogenase (hMDH), acid-denatured (enzyme) AKVAVLGASGGIGQPLSLLLKNSPLVSRLTLYDIAHTPGVAADLSHIETKAAVKGYLGPEQLPDCLKGCDVVVIPAGVPRKPGMTRDDLFNTNATIVATLTAACAQHCPEAMICVIANPVNSTIPITAEVFKKHGVYNPNKIFGVTTLDIVRANTFVAELKGLDPARVNVPVIGGHAGKTIIPLISQCTPKVDFPQDQLTALTGRIQEAGTEVVKAKAGAGSATLSMAYAGARFVFSLVDAMNGKEGVVECSFVKSQETECTYFSTPLLLGKKGIEKNLGIGKVSSFEEKMISDAIPELKASIKKGEDFVKTLK
